Values quoted from earlier work as cited in publication PMC2904412.

Molecular target: thrombomodulin (Homo sapiens) (UniProt P07204)

thrombin (from UniProt P00734)
Kd: < 1 nM
